Test results as given in paper PMC8833184.
Where a chain is given by its changes, count along the chain named.

Columns and labels:
SF3A1-UBL WT [1] = target: T1, SF3A1-UBL WT (human, UniProt Q15459 704-793); test: NMR
T1 sequence: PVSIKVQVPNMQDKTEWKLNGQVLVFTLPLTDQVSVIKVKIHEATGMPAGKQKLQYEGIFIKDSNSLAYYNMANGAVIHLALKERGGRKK

SF3A1-UBL K754A = target: T2, SF3A1-UBL K754A (human, UniProt Q15459 704-793, K754A); test: SPR
T2 sequence: T1 sequence with K51A

SF3A1-UBL F763A = target: T3, SF3A1-UBL F763A (human, UniProt Q15459 704-793, F763A); test: SPR
T3 sequence: T1 sequence with F60A

SF3A1-UBL K765A = target: T4, SF3A1-UBL K765A (human, UniProt Q15459 704-793, K765A); test: SPR
T4 sequence: T1 sequence with K62A

SF3A1-UBL G790I = target: T5, SF3A1-UBL G790I (human, UniProt Q15459 704-793, G790I); test: SPR
T5 sequence: T1 sequence with G87I

SF3A1-UBL R791A = target: T6, SF3A1-UBL R791A (human, UniProt Q15459 704-793, R791A); test: SPR
T6 sequence: T1 sequence with R88A

SF3A1-UBL WT [2] = target: T1, SF3A1-UBL WT; test: SPR
SF3A1-UBL K717A = target: T7, SF3A1-UBL K717A (human, UniProt Q15459 704-793, K717A); test: SPR
T7 sequence: T1 sequence with K14A

SF3A1-UBL G789I = target: T8, SF3A1-UBL G789I (human, UniProt Q15459 704-793, G789I); test: SPR
T8 sequence: T1 sequence with G86I

B1: 22 nt U1-SL4 (structured_RNA)
RNA: GGGACUGCGUUCGCGCUUUCCC
binding result (SF3A1-UBL WT [1]): binds

B2: Biotin-U1-SL4-WT (structured_RNA)
RNA: GGGGACUGCGUUCGCGCUUUCCCC
Kd (SF3A1-UBL K754A): 16.7 ± 4.38 µM | Kd (SF3A1-UBL F763A): 2.76 ± 0.3 µM | Kd (SF3A1-UBL K765A): 7.89 ± 0.71 µM | Kd (SF3A1-UBL G790I): 14.1 ± 3.12 µM | Kd (SF3A1-UBL R791A): 5.97 ± 0.5 µM | Kd (SF3A1-UBL WT [2]): 0.332 ± 0.03 µM | Kd (SF3A1-UBL K717A): 1.59 ± 0.27 µM | Kd (SF3A1-UBL G789I): 41.9 ± 5.7 µM
